Assay results: PMC8696166

Biological target: His-GD1 (N-terminally His-tagged GD1 domain of EngA) (Synechococcus elongatus PCC7942)
Assay: pull-down; His-EngA or His-GD1 (6 μg) bound to DynaBeads-Histag, 6 μg PipX–ST added; 50 mM Tris-HCl pH 7, 0.1 M KCl, 10% glycerol, 10 mM MgCl2, 20 mM imidazole, 0.1% Triton-X100, with or without 1 mM GDP, room temperature; elution with 500 mM imidazole; Western blot with antisera against PipX and EngA

His-GD1 (N-terminally His-tagged GD1 domain of EngA) (Synechococcus elongatus PCC7942), sequence (Q31KP9 1-169): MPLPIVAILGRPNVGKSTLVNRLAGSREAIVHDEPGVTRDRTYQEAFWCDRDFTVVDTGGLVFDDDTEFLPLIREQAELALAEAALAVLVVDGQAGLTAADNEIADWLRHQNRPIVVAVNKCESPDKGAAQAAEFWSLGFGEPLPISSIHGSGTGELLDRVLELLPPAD

retention of PipX (PipX/GD1 band intensity ratio) relative to the PipX/EngA ratio with His-EngA: 10 fold
B1: PipX–ST (C-terminally Strep-tagged PipX) (natural protein)
chain: MASENYLNHPTFGLLYQICSFGDSKELFATLYAQRLFFLVAFDARGTRFEPIGRNEARMLVDNRLRQLRRDASLQEYNQLQQVFKQTFL
